Data published in patent publication US20220017630A1 (JIANGSU SIMCERE PHARMACEUTICAL, published 2022).
Changes are numbered by the printed parent chain.

B1: TNFR2 antibody #219 (antibody, V domains shown)
VH: EVQLQESGAELVRPGASVKLSCKASGYSFTNYWMNWVKQRPGQGLEWIGMIHPSDTETRLNQNFKDKATLTVDKSSSTSYMQLSSPTSEDSAVYYCARGEGLGAARSVSMDYWGQGTTVTVSS
VL: DILMTQSPSSLSASLGDRVTISCRASQDISNYLNWYQQKPDGTVKVLIYYTAILHSGVPSRFSGSGSGTDYSLTISNLEQEDIATYFCQQGNTLPWTFGGGTKLEIK
B2: TNFR2 antibody #226 (antibody, V domains shown)
VH: B1 VH with T56S, N63K, S79A
VL: B1 VL with L3Q, I53L
B3: TNFR2 antibody #365 (antibody, V domains shown)
VH: EVQLQESGPGLVQPSQSLSITCTVSGFSLTSYGVHWVRQSPGKGLEWLGLIWSDGSPDYSAAFISRLSINKDNSKSQVFFKMNSLQADDTAIYYCARNDDGGDYVMDYWGQGTTVTVSS
VL: EIVLTQSPALMSASPGEKVTMTCSASSSVSYMYWYQQKPRSSPKPWIYLTSNLASGVPARFSGSGSGTSYSLTISSMEAEDAATYYCQQWTSNPLTFGAGTKLEIK

What follows are binders tested against T1, human TNFR2 on the cell surface (CHO-TNFR2 cells; human Treg cells) (human, UniProt P20333 23-461) (assay: cell-based or functional assay).
T1 sequence (looked up): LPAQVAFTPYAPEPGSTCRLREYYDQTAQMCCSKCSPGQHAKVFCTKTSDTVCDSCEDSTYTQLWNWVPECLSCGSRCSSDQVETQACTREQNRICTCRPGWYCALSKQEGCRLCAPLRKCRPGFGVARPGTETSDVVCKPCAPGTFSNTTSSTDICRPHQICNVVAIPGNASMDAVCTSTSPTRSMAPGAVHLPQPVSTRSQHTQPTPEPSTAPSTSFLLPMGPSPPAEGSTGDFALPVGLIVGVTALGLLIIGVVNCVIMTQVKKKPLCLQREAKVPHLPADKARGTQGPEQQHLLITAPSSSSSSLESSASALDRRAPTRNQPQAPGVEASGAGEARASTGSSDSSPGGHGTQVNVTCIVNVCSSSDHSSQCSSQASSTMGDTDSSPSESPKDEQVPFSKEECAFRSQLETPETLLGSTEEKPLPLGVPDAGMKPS

In order of rising “proliferation inhibition (TNFα-induced Treg cell proliferation, against anti-Hel)” value:
1. B2  10.3%
2. B3  11%
3. B1  13.6%

Target: T1, human TNFR2 on the cell surface …
Assay: cell-based or functional assay
Remark: another data set of the same source

In order of falling “% AUC versus positive control (#52), ADCC against Treg” value:
1. B3  70.7%
2. B2  69%
3. B1  52.7%

The binders below were run against T2, Human TNFR2 recombinant protein (Sino 10417-H08H) (human, UniProt P20333 23-257) (assay: SPR Biacore, antibody on Protein A chip, TNFR2 analyte).
T2 construct: also called hTNFR2 (His tag)
T2 sequence (looked up): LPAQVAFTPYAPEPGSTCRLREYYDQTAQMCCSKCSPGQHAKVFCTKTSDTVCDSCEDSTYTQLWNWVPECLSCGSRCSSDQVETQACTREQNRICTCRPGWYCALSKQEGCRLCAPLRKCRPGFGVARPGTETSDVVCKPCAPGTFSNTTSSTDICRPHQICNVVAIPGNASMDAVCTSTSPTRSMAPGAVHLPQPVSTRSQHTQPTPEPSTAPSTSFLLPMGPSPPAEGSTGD
Description: (§1) In this experiment, Protein A chip was used, and the time required for the chip to capture the diluted antibody was determined by manual run, so that the Rmax of the saturated binding antigen was 50 RU. Human TNFR2 (Sino 10417-H08H) and cynomolgus TNFR2 (Sino 90102-C08H) were diluted to 32, 16, 8, 4, 2 nM. The affinity of antibody and antigen was measured by multi-cycle kinetics. In each cycle, anti-TNFR2 antibodies were injected prior to the injection of gradient concentrations of TNFR2 protein allowing the occurrence of antibody-antigen association and dissociation. After each cycle, the Protein A chip was regenerated with Glycine pH1.5 (to remove the protein on the chip). BIAcore T200 analysis software was used to calculate the affinity KD of antibody binding to antigen.

In order of rising Kd:
1. B2  0.194 nM
2. B1  0.234 nM
3. B3  0.952 nM

In order of rising koff:
1. B2  7.14e-05 s⁻¹
2. B1  8.4e-05 s⁻¹
3. B3  0.00209 s⁻¹

In order of rising kon:
1. B1  358000 M⁻¹ s⁻¹
2. B2  369000 M⁻¹ s⁻¹
3. B3  2.2e+06 M⁻¹ s⁻¹

Each binder was assayed against T3, cynomolgus TNFR2 (Sino 90102-C08H) (cynomolgus, UniProt A0A2K5VET2 132-366) in the same assay as above.
T3 construct: also called CynoTNFR2 (His tag)
T3 sequence: T2 sequence (looked up) with S16G, S36P, P117Q, N164H, E210A, S216G, M223V
Description: as §1

In order of falling Kd:
1. B1  0.863 nM
2. B3  0.752 nM
3. B2  0.577 nM

In order of rising koff:
1. B2  0.000318 s⁻¹
2. B1  0.000481 s⁻¹
3. B3  0.00308 s⁻¹

In order of falling kon:
1. B3  4.1e+06 M⁻¹ s⁻¹
2. B1  558000 M⁻¹ s⁻¹
3. B2  551000 M⁻¹ s⁻¹

Each binder was assayed against T1, human TNFR2 on the cell surface … (assay: flow cytometry, blocking of TNFα-biotin on CHO-TNFR2 cells).
Description: (§2) CHO cells that stably overexpressed human TNFR2 were used for experiments. The cells were resuscitated and passaged until in good state, and the expression level of human TNFR2 on the cells was assessed by FACS. Compared to the isotype control, the assay could be carried out when the fold change of mean fluorescence intensity (MFI) was more than 100 times.
(§3) CHO-TNFR2 cells were digested, washed twice with DPBS and stained with Live/Dead (L/D) at room temperature for 20 min, and then seeded at 1×10⁵ cells/50 μl/well. […] The diluted antibodies were added 50 μl/well into wells pre-seeded with cells, and gently blown and mixed to make the final concentrations of the antibodies to 20, 6.67, 2.22, 0.74, 0.247, 0.08, 0.027 and 0 nM, respectively followed by incubation at 4° C. for 30 min. […] After washing twice with the staining buffer, 100 μl/well of PE-streptavidin was added and incubated at 4° C. for 30 min. After additional washing with the staining buffer twice, 150 μl resuspended cells was analyzed using an flow cytometry. Taking the logarithmic value of the antibody concentrations as abscissa and the corresponding MFI value as ordinate, the inhibition curve of the antibody was drawn, and the IC50 value was calculated by four parameters fitting.

In order of falling IC50:
1. B1  0.101 µg/mL
2. B2  0.06 µg/mL
3. B3  0.041 µg/mL

Each binder was assayed against T4, human TNFR2 (Novoprotein, Catalog No. C830) (human, UniProt P20333 23-257, limits assumed) (assay: blocking ELISA, TNFα-biotin on coated human TNFR2, antibody 20 nM).
T4 construct: construct not described; also called TNFR2 protein
T4 sequence (looked up): T2 sequence (looked up)
Description: A microplate was pre-coated with 100 μl/well of 1 μg/ml human TNFR2 (Novoprotein, Catalog No. C830). […] After washing the plate, a Streptavidin-HRP working solution (1:10000 dilution) was added at 100 μl/well, and incubated with shaking at room temperature for 40 min. The plate was washed again, the HRP substrate TMB was added for color development, the termination solution was added to terminate the reaction, and the microplate reader was used to read the absorption value.

In order of rising “ELISA OD of antibodies to be tested (20 nM)” value:
1. B2  0.237 OD
2. B1  0.28 OD
3. B3  0.418 OD

The binders below were run against T1, human TNFR2 on the cell surface … (assay: flow cytometry, blocking of TNFα-biotin on CHO-TNFR2 cells; against 002#).
Description: as §2, §3

In order of falling “IC50 Relative Value %” value:
1. B3  232%
2. B2  129%
3. B1  71.4%

Each binder was assayed against T1, human TNFR2 on the cell surface … (assay: flow cytometry, blocking of TNFα-biotin on CHO-TNFR2 cells; AUC for 002# / AUC for antibody x 100).
Description: as §2, §3

In order of rising AUC %:
1. B1  93.7%
2. B2  98.7%
3. B3  117%
